Reference: patent publication US20260151494A1 (ARO BIOTHERAPEUTICS, published 2026)

How the values were obtained:
[1] = biological target: T1, human CD71 extracellular domain (human, UniProt P02786 89-760, biotinylated); assay: primary ELISA; further: test concentration or dose not given here
T1 construct: also called hCD71; CD71-ECD

[2] = biological target: T2, apical domain of human CD71 (human, UniProt P02786 189-383, limits assumed); assay: primary ELISA; further: test concentration or dose not given here
T2 construct: domain: apical domain; Screen 4 panned on human apical domains, the ELISA text says only 'apical domain'

[3] = biological target: T1, human CD71 extracellular domain; assay: primary ELISA, RLU over HSA
[4] = biological target: T2, apical domain of human CD71; assay: primary ELISA, RLU over HSA
[5] = biological target: T3, human CD71 extracellular domain (human, UniProt P02786 89-760); assay: primary ELISA; further: test concentration or dose not given here
T3 construct: also called hCD71; CD71-ECD

[6] = biological target: T4, human apical domain of CD71 (human, UniProt P02786 189-383, limits assumed); assay: primary ELISA; further: test concentration or dose not given here
T4 construct: domain: apical domain

[7] = biological target: T3, human CD71 extracellular domain; assay: primary ELISA; signal over HSA control; on RLU: test concentration or dose not given here
[8] = biological target: T4, human apical domain of CD71; assay: primary ELISA; signal over HSA control; on RLU: test concentration or dose not given here

T1 sequence (P02786 89-760): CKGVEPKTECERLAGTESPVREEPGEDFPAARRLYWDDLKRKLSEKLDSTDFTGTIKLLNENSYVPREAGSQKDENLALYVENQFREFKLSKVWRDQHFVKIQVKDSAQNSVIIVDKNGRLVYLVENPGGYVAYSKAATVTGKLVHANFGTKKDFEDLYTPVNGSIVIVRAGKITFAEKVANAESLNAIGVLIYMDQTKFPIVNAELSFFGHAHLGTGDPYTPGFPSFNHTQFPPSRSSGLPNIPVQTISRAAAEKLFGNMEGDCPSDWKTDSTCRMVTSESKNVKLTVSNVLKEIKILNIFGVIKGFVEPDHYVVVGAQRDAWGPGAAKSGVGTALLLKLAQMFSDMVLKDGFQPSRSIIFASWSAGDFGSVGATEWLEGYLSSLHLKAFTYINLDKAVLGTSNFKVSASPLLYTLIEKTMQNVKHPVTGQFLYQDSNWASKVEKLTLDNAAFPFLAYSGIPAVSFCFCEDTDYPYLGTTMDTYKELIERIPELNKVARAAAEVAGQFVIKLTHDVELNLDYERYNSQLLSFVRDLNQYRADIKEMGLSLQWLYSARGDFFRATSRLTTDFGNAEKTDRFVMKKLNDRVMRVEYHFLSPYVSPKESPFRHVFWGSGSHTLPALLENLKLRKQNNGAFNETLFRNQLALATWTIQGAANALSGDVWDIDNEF
T3 sequence (P02786 89-760): as above
T4 sequence (P02786 189-383 limits assumed): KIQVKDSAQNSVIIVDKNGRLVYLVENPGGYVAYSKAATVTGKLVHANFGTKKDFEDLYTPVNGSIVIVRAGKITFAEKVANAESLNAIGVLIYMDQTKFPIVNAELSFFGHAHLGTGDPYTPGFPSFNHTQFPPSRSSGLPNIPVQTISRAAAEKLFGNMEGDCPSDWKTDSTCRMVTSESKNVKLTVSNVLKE
T2 sequence (P02786 189-383 limits assumed): as above

Binder	RLU [1]	RLU [2]	hCD71:HSA [3]	Apical domain:HSA [4]	RLU [5]	RLU [6]	hCD71:HSA [7]	Apical domain:HSA [8]
CD71-binding FN3 domain of SEQ ID NO: 507 (designed binder) MLPAPKNLVVSRVTEDSARLSWTAPDAAFDSFFIGYLEPQPPGEAIHLLVPGSERSYDLTGLKPGTEYNVTIQGVKGGFPSMPLSAIFTT	3.52e+06 RLU	4.83e+06 RLU	178	245	–	–	–	–
CD71-binding FN3 domain of SEQ ID NO: 448 (designed binder) MLPAPKNLVVSRVTEDSARLSWTAPDAAFDSFFIGYLEPQPPGEAIDLYVPGSERSYDLTGLKPGTEYNVTIQGVKGGFPSMPLYARFTT	4.73e+06 RLU	4.76e+06 RLU	74	74	–	–	–	–
CD71-binding FN3 domain of SEQ ID NO: 449 (designed binder) MLPAPKNLVVSRVTEDSARLSWTAPDAAFDSFYIAYQELSLWGEAIVLTVPGSERSYDLTGLKPGTEYNVTIQGVKGGFPSLPLAAQFTT	6.75e+06 RLU	6.51e+06 RLU	69	66	–	–	–	–
CD71-binding FN3 domain of SEQ ID NO: 467 (designed binder) MLPAPKNLVVSRVTEDSARLSWTAPDAAFDSFFIGYLEPQPPGEAIQLLVPGSERSYDLTGLKPGTEYNVTIQGVKGGFPSDPLVAYSTT	1.18e+06 RLU	2e+06 RLU	27	45	–	–	–	–
CD71-binding FN3 domain of SEQ ID NO: 454 (designed binder) MLPAPKNLVVSRVTEDSARLSWTAPDAAFDSFFIGYLEPQPPGEAINLTVPGSERSYDLTGLKPGTEYNVTIQGVKGGFPSYPLQASFTT	4.18e+06 RLU	4.2e+06 RLU	226	227	–	–	–	–
CD71-binding FN3 domain of SEQ ID NO: 446 (designed binder) MLPAPKNLVVSRVTEDSARLSWTAPDAAFDSFFIGYLEPQPPGEAIQLFVPGSERSYDLTGLKPGTEYNVTIQGVKGGFPSLPLIAYFTT	4.75e+06 RLU	5.51e+06 RLU	37	42	–	–	–	–
CD71-binding FN3 domain of SEQ ID NO: 453 (designed binder) MLPAPKNLVVSRVTEDSARLSWTAQDAAFDSFFIGYLEPQPPGEAIALLVPGSERSYDLTGLKPGTEYNVTIQGVKGGFPSHPLSASFTT	4.95e+06 RLU	5.12e+06 RLU	142	147	–	–	–	–
CD71-binding FN3 domain of SEQ ID NO: 456 (designed binder) MLPAPKNLVVSRVTEDSARLSWTAPDAAFDSFFIGYLEPQPPGEAIALYVPGSERSYDLTGLKPGTEYNVTIQGVKGGFPSHPLQAHFTT	4.5e+06 RLU	4.31e+06 RLU	302	289	–	–	–	–
CD71-binding FN3 domain of SEQ ID NO: 464 (designed binder) MLPAPKNLVVSRVTEDSARLSWTAPDAAFDSFFIGYLEPQPPGEAIQLFVPGSERSYDLTGLKPGTEYNVTIQGVKGGFPSTPLVASFTT	4.94e+06 RLU	5.68e+06 RLU	140	160	–	–	–	–
CD71-binding FN3 domain of SEQ ID NO: 447 (designed binder) MLPAPKNLVVSRVTEDSARLSWTAPDAAFDSFFIGYLEPQPPGEAIYLYVPGSERSYDLTGLKPGTEYNVTIQGVKGGFPSYPLTAQFTT	5.86e+06 RLU	5.25e+06 RLU	152	136	–	–	–	–
CD71-binding FN3 domain of SEQ ID NO: 452 (designed binder) MLPAPKNLVVSRVTEDSARLSWTAPDAAFDSFFIGYLEPQPPGEAIHLQVPGSERSYDLTGLKPGTEYNVTIQGVKGGFPSIPLVAQFTT	5.24e+06 RLU	4.23e+06 RLU	88	71	–	–	–	–
CD71-binding FN3 domain of SEQ ID NO: 450 (designed binder) MLPAPKNLVVSRVTEDSARLSWTAPDAAFDSFFIGYLEPQPPGEAISLFVPGSERSYDLTGLKPGTEYNVTIQGVKGGFPSEPLAAKFTT	4.1e+06 RLU	6.26e+06 RLU	166	253	–	–	–	–
CD71-binding FN3 domain of SEQ ID NO: 451 (designed binder) MLPAPKNLVVSRVTEDSARLSWTAPDAAFDSFFIGYLEPQPPGEAIGLLVPGSERSYDLTGLKPGTEYNVTIQGVKGGFPSIPLVADFTT	5.23e+06 RLU	6.08e+06 RLU	129	151	–	–	–	–
CD71-binding FN3 domain of SEQ ID NO: 457 (designed binder) MLPAPKNLVVSRVTEDSARLSWTAPDAAFDSFFIGYLEPQPPGEAIVLLVPGSERSYDLTGLKPGTEYNVTIQGVKGGFPSAPLVATFTT	5.54e+06 RLU	5.78e+06 RLU	51	53	–	–	–	–
CD71-binding FN3 domain of SEQ ID NO: 459 (designed binder) MLPAPKNLVVSRVTEDSARLSWTAPDAAFDSFFIRYLEPQPPGEAIHLSVPGSERSYDLTGLKPGTEYNVTIQGVKGGFPSMPLYAIFTT	2.5e+06 RLU	2.61e+06 RLU	191	199	–	–	–	–
CD71-binding FN3 domain of SEQ ID NO: 462 (designed binder) MLPAPKNLVVSRVTEDSARLSWTAPDAAFDSFFIGYLEPQPPGEAIHLQVPGSERSYDLTGLKPGTEYNVTIQGVKGGFPSVPLHARFTT	2.83e+06 RLU	3.28e+06 RLU	76	88	–	–	–	–
CD71-binding FN3 domain of SEQ ID NO: 460 (designed binder) MLPAPKNLVVSRVTEDSARLSWTAPDAAFDSFFIGYLEPQPPGEAISLYVPGSERSYDQTGLKPGTEYNVTIQGVKGGFPSDPLSARFTT	2.69e+06 RLU	2.8e+06 RLU	143	148	–	–	–	–
CD71-binding FN3 domain of SEQ ID NO: 465 (designed binder) MLPAPKNLVVSRVTEDSARLSWTAPDAAFDSFFIGYLEPQPPGEAIDLYVPGSERSYDLTGLKPGTEYNVTIQGVKGGFPSEPLWADFTT	3.86e+06 RLU	4.15e+06 RLU	129	138	–	–	–	–
CD71-binding FN3 domain of SEQ ID NO: 461 (designed binder) MLPAPKNLVVSRVTEDSARLSWTAPDAAFDSFFIGYLEPQPPGEAIGLFVPGSERSYDLTGLKPGTEYNVTIQGVKGGFPSMPLSPIFTT	3.77e+06 RLU	5.35e+06 RLU	117	166	–	–	–	–
CD71-binding FN3 domain SEQ ID NO 384 (designed binder) MLPAPKNLVVSRVTEDSARLSWTAPDAAFDSFEIDYAENRHHGEAIALLVPGSERSYDLTGLKPGTEYIVFIGGVKGGRWSQPLVASFTT	–	–	–	–	2.04e+06 RLU	5.55e+06 RLU	21 ratio	57 ratio
CD71-binding FN3 domain SEQ ID NO 442 (designed binder) MLPAPKNLVVSRVTEDSARLSWTAPDAAFDSFEIWYAEWRQVGEAIVLTVPGSERSYDLTGLKPGTEYNVDIHGVKGGKVSWPLSAISTT	–	–	–	–	4.92e+06 RLU	6.23e+06 RLU	172 ratio	217 ratio
CD71-binding FN3 domain SEQ ID NO 406 (designed binder) MLPAPKNLVVSRVTEDSARLSWTAPDAAFDSFFIDYDESLDSGEAIVLTVPGSERSYDLTGLKPGTEYNVTIQGVKGGFPSSPLEAAFTT	–	–	–	–	1.42e+06 RLU	3.68e+06 RLU	185 ratio	478 ratio
CD71-binding FN3 domain SEQ ID NO 397 (designed binder) MLPAPKNLVVSRVTEDSARLSWTAPDAAFDSFIILYGEAQYDGEAIVLTVPGSERSYDLTGLKPGTEYPVDIYGVKGGPYSWPLSAIFTT	–	–	–	–	1.65e+06 RLU	5.57e+06 RLU	25 ratio	84 ratio
CD71-binding FN3 domain SEQ ID NO 402 (designed binder) MLPAPKNLVVSRVTEDSARLSWTAPDAAFDSFGIYYWEYTGGEAIVLTVPGSERSYDLTGLKPGTEYVVRILGVKGGAYSTPLSAIFTT	–	–	–	–	2.17e+06 RLU	4.77e+06 RLU	209 ratio	459 ratio
CD71-binding FN3 domain SEQ ID NO 371 (designed binder) MLPAPKNLVVSRVTEDSARLSWTAPDAAFDSFDIDYVEFGWTGEAIALLVPGSERSYDLTGLKPGTEYWVWIGGVKGGDYSPPLNAYFTT	–	–	–	–	2.08e+06 RLU	4.4e+06 RLU	45 ratio	95 ratio
CD71-binding FN3 domain SEQ ID NO 362 (designed binder) MLPAPKNLVVSRVTEDSARLSWTAPDAAFDSFEIAYWENNFNGEAIILIVPGSERSYDLTGLKPGTEYVVFISGVKGGTWSYPLVAQFTT	–	–	–	–	2.24e+06 RLU	4.86e+06 RLU	47 ratio	102 ratio
CD71-binding FN3 domain SEQ ID NO 379 (designed binder) MLPAPKNLVVSRVTEDSARLSWTAPDAAFDSFYIEYWEGYRSGEAIVLTVPGSERSYDLTGLKPGTEYRVHIWGVKGGAVSYPLSAIFTT	–	–	–	–	1.4e+06 RLU	5.13e+06 RLU	65 ratio	239 ratio
CD71-binding FN3 domain SEQ ID NO 444 (designed binder) MLPAPKNLVVSRVTEDSARLSWTAPDAAFDSFEIDYVEFIFTGEAIGLIVPGSERSYDLTGLKPGTKYWVTIAGVKGGEWSTPLQAFFTT	–	–	–	–	2.8e+06 RLU	5.12e+06 RLU	48 ratio	89 ratio
